Data reported in article PMC5512451.

Target: N90-VRC38.01 IgG (human)
Test: SPR

For “BG505.DS.T332N.SOSIP.664 gp140 trimer (complex)”, which fold stronger binding of the IgG than of the Fab is on record?
The fold stronger binding of the IgG than of the Fab was greater than 7 fold.
